Measured values reported in publication PMC3427372, “Proteomic Analysis Reveals New Cardiac-Specific Dystrophin-Associated Proteins” (PLoS ONE, 2012).

Biological target: T1, Dystrophin (mouse (endogenous in cardiac and …, UniProt P11531 1-3678))
T1 construct: dystrophin, mouse, the large (427 kDa) full-length form of muscle cells; also called full-length dystrophin; full length dystrophin; source: endogenous, mouse cardiac ventricle and skeletal muscle (quadriceps) lysate
Assay: co-IP; DYS-IP (MANDYS1 cross-linked to protein G magnetic beads) from wild type mouse cardiac muscle lysate, 3 hr at 4°C, Western blot; controls IgG-IP and mdx
Details: partners not purified

T1 sequence (P11531 whole entry): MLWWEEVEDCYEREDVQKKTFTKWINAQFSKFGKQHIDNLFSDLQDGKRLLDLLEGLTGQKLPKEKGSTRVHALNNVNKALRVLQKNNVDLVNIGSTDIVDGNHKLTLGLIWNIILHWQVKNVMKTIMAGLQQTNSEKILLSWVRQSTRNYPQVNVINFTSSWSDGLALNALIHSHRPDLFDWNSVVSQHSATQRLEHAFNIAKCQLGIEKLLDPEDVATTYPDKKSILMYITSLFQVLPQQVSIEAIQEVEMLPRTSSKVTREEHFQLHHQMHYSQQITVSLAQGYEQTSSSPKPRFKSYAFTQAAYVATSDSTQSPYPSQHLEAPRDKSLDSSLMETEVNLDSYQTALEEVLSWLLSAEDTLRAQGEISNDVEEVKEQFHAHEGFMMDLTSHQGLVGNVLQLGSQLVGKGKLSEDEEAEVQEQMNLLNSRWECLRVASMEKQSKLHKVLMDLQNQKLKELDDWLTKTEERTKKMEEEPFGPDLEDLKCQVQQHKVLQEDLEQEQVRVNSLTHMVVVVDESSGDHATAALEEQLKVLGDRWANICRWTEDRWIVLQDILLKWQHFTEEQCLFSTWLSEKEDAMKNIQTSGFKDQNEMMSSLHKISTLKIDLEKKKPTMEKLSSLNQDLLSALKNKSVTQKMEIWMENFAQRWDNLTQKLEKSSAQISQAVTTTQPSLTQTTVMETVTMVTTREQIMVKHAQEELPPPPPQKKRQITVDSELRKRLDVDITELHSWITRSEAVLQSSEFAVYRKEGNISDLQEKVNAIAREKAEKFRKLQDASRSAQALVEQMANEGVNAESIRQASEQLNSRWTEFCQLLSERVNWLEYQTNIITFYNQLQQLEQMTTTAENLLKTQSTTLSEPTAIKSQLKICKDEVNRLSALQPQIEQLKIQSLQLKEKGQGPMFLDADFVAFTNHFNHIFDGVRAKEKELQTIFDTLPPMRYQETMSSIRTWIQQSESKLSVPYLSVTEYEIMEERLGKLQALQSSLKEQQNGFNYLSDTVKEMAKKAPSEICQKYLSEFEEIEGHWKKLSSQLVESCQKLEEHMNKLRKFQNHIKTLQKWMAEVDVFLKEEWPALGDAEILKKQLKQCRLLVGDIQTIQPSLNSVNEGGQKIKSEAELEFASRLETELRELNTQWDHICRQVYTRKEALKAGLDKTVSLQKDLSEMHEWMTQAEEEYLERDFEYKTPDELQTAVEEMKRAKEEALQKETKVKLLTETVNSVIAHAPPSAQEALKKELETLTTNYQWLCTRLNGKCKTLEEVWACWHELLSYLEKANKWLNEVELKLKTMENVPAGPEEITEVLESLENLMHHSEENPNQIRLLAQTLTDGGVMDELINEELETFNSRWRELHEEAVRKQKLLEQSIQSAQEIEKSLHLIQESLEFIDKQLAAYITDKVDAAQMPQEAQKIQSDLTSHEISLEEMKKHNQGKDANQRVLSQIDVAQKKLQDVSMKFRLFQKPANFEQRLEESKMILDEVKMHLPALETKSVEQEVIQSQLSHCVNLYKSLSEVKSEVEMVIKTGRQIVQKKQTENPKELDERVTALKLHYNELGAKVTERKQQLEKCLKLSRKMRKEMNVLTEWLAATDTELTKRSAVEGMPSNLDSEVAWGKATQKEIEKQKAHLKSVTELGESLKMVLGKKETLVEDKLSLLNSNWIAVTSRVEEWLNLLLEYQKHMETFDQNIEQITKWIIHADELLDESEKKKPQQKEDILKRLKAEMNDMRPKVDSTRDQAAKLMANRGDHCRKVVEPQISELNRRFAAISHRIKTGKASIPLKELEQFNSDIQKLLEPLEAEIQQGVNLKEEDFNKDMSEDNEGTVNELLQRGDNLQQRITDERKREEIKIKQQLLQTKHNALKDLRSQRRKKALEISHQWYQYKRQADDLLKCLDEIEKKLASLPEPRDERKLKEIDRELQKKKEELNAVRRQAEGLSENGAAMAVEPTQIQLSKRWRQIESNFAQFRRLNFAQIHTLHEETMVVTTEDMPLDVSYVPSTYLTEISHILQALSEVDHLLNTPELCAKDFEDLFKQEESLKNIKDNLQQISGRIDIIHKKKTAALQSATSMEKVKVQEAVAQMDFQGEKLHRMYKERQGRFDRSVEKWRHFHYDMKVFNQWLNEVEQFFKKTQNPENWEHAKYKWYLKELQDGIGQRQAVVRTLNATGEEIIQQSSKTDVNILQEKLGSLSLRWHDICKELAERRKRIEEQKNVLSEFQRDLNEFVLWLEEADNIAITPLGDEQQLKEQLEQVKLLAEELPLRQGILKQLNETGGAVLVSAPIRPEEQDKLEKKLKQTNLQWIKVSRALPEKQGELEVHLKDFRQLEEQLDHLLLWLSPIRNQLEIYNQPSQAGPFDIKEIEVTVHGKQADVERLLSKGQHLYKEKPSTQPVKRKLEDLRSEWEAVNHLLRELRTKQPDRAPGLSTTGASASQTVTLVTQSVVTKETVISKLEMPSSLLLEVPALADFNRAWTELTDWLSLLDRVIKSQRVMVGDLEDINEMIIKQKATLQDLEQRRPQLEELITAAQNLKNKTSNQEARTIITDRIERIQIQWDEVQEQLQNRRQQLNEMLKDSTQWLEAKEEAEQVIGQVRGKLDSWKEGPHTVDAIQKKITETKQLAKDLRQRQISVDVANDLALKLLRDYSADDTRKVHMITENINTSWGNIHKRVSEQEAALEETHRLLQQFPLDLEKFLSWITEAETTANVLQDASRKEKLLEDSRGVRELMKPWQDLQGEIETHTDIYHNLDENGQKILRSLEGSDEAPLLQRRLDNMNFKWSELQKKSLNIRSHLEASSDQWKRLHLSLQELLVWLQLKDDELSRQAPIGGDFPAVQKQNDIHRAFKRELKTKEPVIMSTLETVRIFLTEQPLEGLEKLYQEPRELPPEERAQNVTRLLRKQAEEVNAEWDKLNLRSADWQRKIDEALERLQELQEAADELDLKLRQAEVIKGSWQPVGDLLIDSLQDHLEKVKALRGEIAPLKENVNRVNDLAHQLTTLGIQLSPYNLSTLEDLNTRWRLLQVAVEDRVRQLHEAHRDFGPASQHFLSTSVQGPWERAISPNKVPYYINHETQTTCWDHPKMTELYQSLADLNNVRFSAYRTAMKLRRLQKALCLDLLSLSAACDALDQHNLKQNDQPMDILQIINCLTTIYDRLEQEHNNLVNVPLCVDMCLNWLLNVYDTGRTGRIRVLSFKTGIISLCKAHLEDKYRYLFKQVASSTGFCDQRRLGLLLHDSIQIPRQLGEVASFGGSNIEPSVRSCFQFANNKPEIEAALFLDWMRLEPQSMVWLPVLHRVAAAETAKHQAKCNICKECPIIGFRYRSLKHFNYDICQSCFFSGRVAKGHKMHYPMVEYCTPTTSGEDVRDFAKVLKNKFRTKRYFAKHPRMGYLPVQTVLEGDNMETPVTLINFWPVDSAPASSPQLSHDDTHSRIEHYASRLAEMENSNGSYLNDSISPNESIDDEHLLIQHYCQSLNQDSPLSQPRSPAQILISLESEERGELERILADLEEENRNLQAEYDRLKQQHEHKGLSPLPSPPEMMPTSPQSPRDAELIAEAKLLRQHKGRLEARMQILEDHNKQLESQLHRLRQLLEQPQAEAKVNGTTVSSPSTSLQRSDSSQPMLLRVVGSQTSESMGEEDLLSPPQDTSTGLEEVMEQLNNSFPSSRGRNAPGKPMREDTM

B1: β1-Syntrophin (natural protein, UniProt Q99L88 1-537, looked up)
chain: MAVAAAAVAAPAGGGGARAQRSGLLEVLVRDRWHKVLVNLSEDALVLSCEEGAAAYNGIGAATNGSFCRGSGTGHPVPGVAQAPDSPAGVRTAFTDLPEQVPESISNQKRGVKVLKQELGGLGISIKGGKENKMPILISKIFKGLAADQTQALYVGDAILSVNGADLRDATHDEAVQALKRAGKEVLLEVKYMREATPYVKKGSPVSEIGWETPPPESPRLGGGSAEPLSSQSFSFHRDRKSIPLKMCYVTRNMTLADPENRQLEIHSPDAKHTVILRSKDSATAQAWFSAIHSNAGDLLTRVVADIREQLGKTGIAGSREIRHLGWLAEKVPGESEKQWKPALVVLTEKDLLIYDSMPRRKEAWFSPVHSYPLLATRLVHSGPGKGSPQAGMDLSFATRTGTKQGIETHLFRAEISRDLSHWTRSIVQGCHNSAELTAEITTACTYRNQECRLTIHYDNGFSISTEPQDGAFPKTIIQSPYEKLKMSSDDGIRMLYLDFGGKEGEIQLDLHSCPKPIVFIIHSFLSAKITRLGLVA
notes: β1-syntrophin, mouse; source: endogenous, mouse cardiac ventricle and skeletal muscle (quadriceps) lysate
- fold less associated with dystrophin in cardiac than in skeletal muscle DYS-IPs: 4 fold

B2: α1-dystrobrevin (natural protein, UniProt Q9D2N4 1-746, looked up)
chain: MIEDSGKRGNTMAERRQLFAEMRAQDLDRIRLSTYRTACKLRFVQKKCNLHLVDIWNVIEALRENALNNLDPNIELNVARLEAVLSTIFYQLNKRMPTTHQIHVEQSISLLLNFLLAAFDPEGHGKISVFAVKMALATLCGGKIMDKLRYIFSMISDSSGVMVYGRYDQFLREVLKLPTAVFEGPSFGYTEQSARSCFSQQKKVTLNGFLDTLMSDPPPQCLVWLPLLHRLANVENVFHPVECSYCHSESMMGFRYRCQQCHNYQLCQDCFWRGHAGGSHSNQHQMKEYTSWKSPAKKLTNALSKSLSCASSREPLHPMFPDQPEKPLNLAHIVPPRPVTSMNDTLFSHSVPSSGSPFITRSSPPKDSEVEQNKMLARAAPAFLKGRGIQYSLNVADRLADEHVLIGLYVNMLRNDPPCMLESSNRLDEEHRLIARYAARLAAESSSSQPTQQRSAPDISFTIDANKQQRQLIAELENKNREILQEIQRLRVEHEQASQPTPEKAQQNPTLLAELRLLRQRKDELEQRMSALQESRRELMVQLEGLMKLLKEEELKQGTQGASSPRSSPSHTISRPIPMPIRSASACPTPTHTPQDSLTGVGGDVQEAFAQSSRRNLRSDLLVAADSITNTMSSLVKELNSEVASETESTVDSEFSRPQFEDLAPSPTSEKAFLAQIHSRKPGYIHGGAASTTHGDMVPEDGDPYTQPEDGNYENESVRQLENELQLEEYLKQKLQDEAYQVSLQG
notes: α-dystrobrevin splice variant α1, mouse; told apart on blots by molecular weight with a pan α-dystrobrevin antibody; also called DTNA1; source: endogenous, mouse cardiac ventricle and skeletal muscle (quadriceps) lysate
- fold less associated with dystrophin in cardiac than in skeletal muscle DYS-IPs: ~5 fold
